Results from paper PMC12549896, “Structural basis for antibiotic resistance by chloramphenicol acetyltransferase type A in Staphylococcus aureus” (Scientific Reports, 2025).

Experiments:
[1] = molecular target: T1, saCAT1 (chloramphenicol acetyltransferase type A, S. aureus) (Staphylococcus aureus, UniProt P00485); assay: DTNB colorimetric acetyltransferase assay at […] nm, FA […], at […] chloramphenicol; type: biochemical
T1 construct: gene cat; residues 1-216; four amino acids (GSLE) remain at the N-terminus after thrombin cleavage; homotrimer

[2] = system: O=C(N[C@H](CO)[C@H](O)c1ccc([N+](=O)[O-])cc1)C(Cl)Cl; assay: purified protein; type: biochemical, Staphylococcus aureus; details: acetyl-CoA ([…] in assay) docked only: inter-protomer pocket; Ser140, Ser142, Tyr20, Thr25, catalytic His189
[3] = molecular target: the molecule itself; assay: crystal structure; X-ray, space group P321, 1.8 Å; hanging drop at 16 °C, 0.01 M cobalt (II) chloride, 0.1 M sodium acetate pH 4.6, 1 M 1,6-hexanediol; trimer on the crystallographic 3-fold axis, interfaces analysed with PISA

Molecule: CC(=O)O[C@H]1C[C@@]2(C)[C@@H](C[C@@H](O)[C@H]3[C@@]4(C)CC[C@@H](O)[C@@H](C)[C@@H]4CC[C@@]32C)/C1=C(\CCC=C(C)C)C(=O)O [FA, fusidic acid]
- Ki [1]: 83.7 µM

Molecule: saCAT1 (chloramphenicol acetyltransferase type A, S. aureus) (Staphylococcus aureus)
- Km [2]: 16.9 ± 3.0 µM

B1: Staphylococcus aureus chloramphenicol acetyltransferase 1 (saCAT1) (enzyme)
chain: GSLEMNFNKIDLDNWKRKEIFNHYLNQQTTFSITTEIDISVLYRNIKQEGYKFYPAFIFLVTRVINSNTAFRTGYNSDGELGYWDKLEPLYTIFDGVSKTFSGIWTPVKNDFKEFYDLYLSDVEKYNGSGKLFPKTPIPENAFSLSIIPWTSFTGFNLNINNNSNYLLPIITAGKFINKGNSIYLPLSLQVHHSVCDGYHAGLFMNSIQELSDRPNDWLL
notes: four amino acids that remain at the N-terminus after thrombin cleavage of the His tag; chloramphenicol acetyltransferase encoded by the cat1 gene of Staphylococcus aureus plasmid pC194; all residues (1-216) modelled in the crystal structure; Cloned into the vector pFs91G (N-terminal 6xHis tag and thrombin site); Homotrimer in solution and in the crystal; one protomer in the asymmetric unit, the …
- stoichiometry N [3]: 3
